PMC8237747 (Journal for Immunotherapy of Cancer, 2021)

B1: cyno 4-1BB overexpressed on CHO cells (receptor)
chain: LQDLCSNCPAGTFCDNNRSQICSPCPPNSFSSAGGQRTCDICRQCKGVFKTRKECSSTSNAECDCISGYHCLGAECSMCEQDCKQGQELTKKGCKDCCFGTFNDQKRGICRPWTNCSLDGKSVLVNGTKERDVVCGPSPADLSPGASSATPPAPAREPGHSPQIIFFLALTSTVVLFLLFFLVLRFSVVKRSRKKLLYIFKQPFMRPVQTTQEEDGCSCRFPEEEEGGCEL

Columns and labels:
[1] = target: HZ-L-Yr-16-Fc; assay: flow cytometry on cells
[2] = target: HZ-L-Yr-16-Fc; assay: ELISA
[3] = target: B1; assay: flow cytometry on cells

| Binder | binding result [2] | also measured |
| --- | --- | --- |
| B1 | – | binding result [1]: binds |
| Human GITR (receptor) QRPTGGPGCGPGRLLLGTGTDARCCRVHTTRCCRDYPGEECCSEWDCMCVQPEFHCGDPCCTTCRHHPCPPGQGVQSQGKFSFGFQCIDCASGTFSGGHEGHCKPWTDCTQFGFLTVFPGNKTHNAVCVPGSPPAEP | no binding | – |
| Urelumab (antibody, V domains shown) VH: QVQLQQWGAGLLKPSETLSLTCAVYGGSFSGYYWSWIRQSPEKGLEWIGEINHGGYVTYNPSLESRVTISVDTSKNQFSLKLSSVTAADTAVYYCARDYGPGNYDWYFDLWGRGTLVTVSS VL: EIVLTQSPATLSLSPGERATLSCRASQSVSSYLAWYQQKPGQAPRLLIYDASNRATGIPARFSGSGSGTDFTLTISSLEPEDFAVYYCQQRSNWPPALTFGGGTKVEIK | – | binding result [3]: no binding |
| Human OX40 (receptor) LHCVGDTYPSNDRCCHECRPGNGMVSRCSRSQNTVCRPCGPGFYNDVVSSKPCKPCTWCNLRSGSERKQLCTATQDTVCRCRAGTQPLDSYKPGVDCAPCPPGHFSPGDNQACKPWTNCTLAGKHTLQPASNSSDAICEDRDPPATQPQETQGPPARPITVQPTEAWPRTSQGPSTRPVEVPGGRA | no binding | – |
